Data published in patent CN107987163A (HANGZHOU SHANGJIAN BIOTECHNOLOGY CO LTD, dated 2018).

How the values were obtained:
BSA (BOVOGEN) = BSA (BOVOGEN) (UniProt P02769 25-607); assay: ELISA, protein coated at 1μg/ml, goat anti-human IgG-HRP detection
[1] = target: T1, A549细胞表面AXL (AXL on the surface of A549 cells) (UniProt P30530 26-894, limits assumed); assay: flow cytometry on A549 cells, 9A diluted to 20μg/ml, PE mouse anti-human IgG detection
T1 construct: whole, on cells; also called 细胞表面抗原
T1 sequence (looked up): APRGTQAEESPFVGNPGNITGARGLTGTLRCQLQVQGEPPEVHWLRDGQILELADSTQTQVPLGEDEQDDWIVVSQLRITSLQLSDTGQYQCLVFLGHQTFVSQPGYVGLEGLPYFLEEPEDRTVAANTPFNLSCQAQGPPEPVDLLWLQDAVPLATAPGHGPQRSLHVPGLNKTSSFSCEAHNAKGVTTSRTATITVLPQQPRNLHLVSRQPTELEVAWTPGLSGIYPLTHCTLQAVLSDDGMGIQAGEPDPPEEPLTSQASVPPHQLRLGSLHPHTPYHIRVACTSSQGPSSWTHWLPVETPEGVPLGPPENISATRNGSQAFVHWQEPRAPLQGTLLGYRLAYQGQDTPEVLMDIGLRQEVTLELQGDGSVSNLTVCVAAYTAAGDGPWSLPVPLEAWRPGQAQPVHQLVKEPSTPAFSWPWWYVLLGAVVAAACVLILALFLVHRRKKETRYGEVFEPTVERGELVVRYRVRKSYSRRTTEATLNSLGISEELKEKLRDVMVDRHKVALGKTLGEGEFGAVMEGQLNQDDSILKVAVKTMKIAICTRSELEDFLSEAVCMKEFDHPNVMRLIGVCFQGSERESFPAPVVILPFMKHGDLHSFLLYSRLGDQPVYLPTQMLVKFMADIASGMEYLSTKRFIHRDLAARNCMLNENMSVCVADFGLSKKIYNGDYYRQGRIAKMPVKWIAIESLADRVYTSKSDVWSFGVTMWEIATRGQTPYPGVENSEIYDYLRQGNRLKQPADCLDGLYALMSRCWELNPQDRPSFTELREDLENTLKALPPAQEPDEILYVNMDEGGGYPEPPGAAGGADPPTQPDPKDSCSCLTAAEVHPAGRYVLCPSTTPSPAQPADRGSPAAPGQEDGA

[2] = target: T2, AXL-Fc (人AXL蛋白胞外段-人IgG1Fc段融合蛋白) (human, UniProt P30530 26-451); assay: ELISA, AXL-Fc coated at 1μg/ml, antibody titrated, goat anti-human IgG (Fab')2-HRP detection
T2 construct: extracellular domain; Expressed in CHO-K1 cells; also called 靶抗原AXL-Fc; 抗原AXL-Fc
T2 sequence (looked up): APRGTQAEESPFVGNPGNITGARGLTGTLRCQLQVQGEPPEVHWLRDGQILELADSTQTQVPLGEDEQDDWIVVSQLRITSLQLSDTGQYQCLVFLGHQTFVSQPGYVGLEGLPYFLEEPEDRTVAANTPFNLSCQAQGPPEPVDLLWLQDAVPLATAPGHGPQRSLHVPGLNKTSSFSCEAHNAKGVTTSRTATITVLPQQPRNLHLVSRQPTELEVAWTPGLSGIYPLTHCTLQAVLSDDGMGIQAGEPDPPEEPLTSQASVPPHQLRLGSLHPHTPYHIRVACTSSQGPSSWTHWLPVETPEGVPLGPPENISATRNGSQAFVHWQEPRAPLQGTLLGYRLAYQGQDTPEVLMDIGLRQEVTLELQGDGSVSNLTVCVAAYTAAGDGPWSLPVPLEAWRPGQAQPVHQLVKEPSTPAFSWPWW

BSA (BOVOGEN), sequence (P02769 25-607 limits assumed): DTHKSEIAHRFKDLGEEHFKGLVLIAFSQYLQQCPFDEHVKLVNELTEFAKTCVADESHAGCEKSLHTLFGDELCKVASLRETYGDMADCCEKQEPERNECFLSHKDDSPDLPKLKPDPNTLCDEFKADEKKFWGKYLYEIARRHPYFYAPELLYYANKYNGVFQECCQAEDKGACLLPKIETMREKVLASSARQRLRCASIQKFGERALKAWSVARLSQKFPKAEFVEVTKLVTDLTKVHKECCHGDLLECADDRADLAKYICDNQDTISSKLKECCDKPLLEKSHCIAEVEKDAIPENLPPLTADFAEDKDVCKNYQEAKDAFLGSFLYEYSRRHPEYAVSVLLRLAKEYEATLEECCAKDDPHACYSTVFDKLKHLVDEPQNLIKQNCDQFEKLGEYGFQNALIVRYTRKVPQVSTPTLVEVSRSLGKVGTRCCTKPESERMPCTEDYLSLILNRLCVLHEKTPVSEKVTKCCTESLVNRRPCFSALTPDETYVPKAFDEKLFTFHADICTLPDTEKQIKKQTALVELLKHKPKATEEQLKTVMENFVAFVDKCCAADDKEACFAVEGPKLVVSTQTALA

binding result (BSA (BOVOGEN)): no binding
binding result [1]: binds
binding result [2]: binds
B1: 9A抗体 (full antibody 9A, anti-AXL monoclonal antibody) (antibody, human IgG1, kappa, V domains shown)
VH: QVQLVQSGAEVKKPGSSVKVSCKASGGTFSSYAISWVRQAPGQGLEWMGGIIPIFGTANYAQKFQGRATITADESTSTAYMELSSLRSEDTAVYYCARAYYDFWSGYEPWGQGTLVTVSS
VL: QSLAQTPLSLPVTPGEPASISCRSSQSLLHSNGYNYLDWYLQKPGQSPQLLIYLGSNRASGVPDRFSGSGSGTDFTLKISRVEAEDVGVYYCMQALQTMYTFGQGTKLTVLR
notes: also called 单克隆抗体9A; 全抗体
